# Laboratory results as given in patent US20250186597A1, “TARGETED IMMUNE ACTIVATION WITH IL-18 IMMUNOCYTOKINES” (BRIGHT PEAK THERAPEUTICS AG, priority 2023, published 2025).
# Experiments:
# Assay in all cases: cell-based or functional assay
# [1] = biological target: IL-18 polypeptide C152 (V11I, S36A, C38A, K53A, C76A, C127A) (human) (UniProt Q14116)
# [2] = biological target: IL-18 polypeptide C165 (V11I, C38A, S55R, C76A, C127A) (human) (UniProt Q14116)
# [3] = biological target: IL-18 polypeptide C154 (V11I, E31A, D37A, C38A, K53A, C76A, C127A) (human) (UniProt Q14116)
# [4] = biological target: IL-18 polypeptide of SEQ ID NO: 43 (E06K, K53A, S55A, Y01G) (human) (UniProt Q14116)
# [5] = biological target: IL-18 polypeptide C155 (V11I, C38A, D40A, K53A, C76A, C127A) (human) (UniProt Q14116)
# [6] = biological target: IL-18 polypeptide of SEQ ID NO: 40 (E06K, S55A) (human) (UniProt Q14116)
# [7] = biological target: IL-18 polypeptide C151 (V11I, D35A, C38A, K53A, C76A, C127A) (human) (UniProt Q14116)
# [8] = biological target: IL-18 polypeptide C166 (V11I, C38A, S55T, C76A, C127A) (human) (UniProt Q14116)
# [9] = biological target: IL-18 polypeptide of SEQ ID NO: 57 (E6K, C38S, K53A) (human) (UniProt Q14116)
# [10] = biological target: IL-18 polypeptide C149 (V11I, E31A, C38A, K53A, C76A, C127A) (human) (UniProt Q14116)
# [11] = biological target: IL-18 polypeptide of SEQ ID NO: 62 (E6K, C38A, K53A, C127A) (human) (UniProt Q14116)
# [12] = biological target: IL-18 polypeptide of SEQ ID NO: 9 (E6K, C38A, K53A, C68A, D98C) (human) (UniProt Q14116)
# [13] = biological target: IL-18 polypeptide C159 (V11I, C38A, K53A, C76A, H109A, C127A) (human) (UniProt Q14116)
# [14] = biological target: IL-18 polypeptide of SEQ ID NO: 6 (E6K, V11I, C38A, K53A, T63A, C68A, C76A, D98C, C127A) (human) (UniProt Q14116)
# [15] = biological target: IL-18 polypeptide C145 (V11I, C38A, K53A, S55A, C76A, C127A) (human) (UniProt Q14116)
# [16] = biological target: IL-18 polypeptide of SEQ ID NO: 48 (C38S, C68S, C76S, C127S, K70C) (human) (UniProt Q14116)
# [17] = biological target: native IL-18 wild-type (SEQ ID NO: 1) (human) (UniProt Q14116)
# [18] = biological target: IL-18 polypeptide C164 (V11I, C38A, S55H, C76A, C127A) (human) (UniProt Q14116)
# [19] = biological target: IL-18 polypeptide of SEQ ID NO: 42 (E06K, K53A, S55A, T63A) (human) (UniProt Q14116)
# [20] = biological target: IL-18 polypeptide of SEQ ID NO: 5 (E6K, V11I, C38A, K53A, T63A, C68A, C76A, M86C, C127A) (human) (UniProt Q14116)
# [21] = biological target: IL-18 polypeptide C158 (V11I, C38A, K53A, C76A, G108A, C127A) (human) (UniProt Q14116)
# [22] = biological target: IL-18 polypeptide of SEQ ID NO: 31 (C38A, C76A, C127A) (human) (UniProt Q14116)
# [23] = biological target: IL-18 polypeptide of SEQ ID NO: 39 (E06K, K53A) (human) (UniProt Q14116)
# [24] = biological target: IL-18 polypeptide C146 (SEQ ID NO: 68; V11I, C38A, M51G, K53A, C76A, C127A) (human) (UniProt Q14116)
# [25] = biological target: IL-18 polypeptide of SEQ ID NO: 35 (Y01G, F02A, E06K, M51G, K53A, D54A, S55A, T63A) (human) (UniProt Q14116)
# [26] = biological target: IL-18 polypeptide of SEQ ID NO: 52 (E06K, T63A) (human) (UniProt Q14116)
# [27] = biological target: IL-18 polypeptide C153 (V11I, D37A, C38A, K53A, C76A, C127A) (human) (UniProt Q14116)
# [28] = biological target: IL-18 polypeptide C162 (K8E, V11I, C38A, C76A, Q103R, C127A) (human) (UniProt Q14116)
# [29] = biological target: IL-18 polypeptide of SEQ ID NO: 51 (T63A) (human) (UniProt Q14116)
# [30] = biological target: IL-18 polypeptide C160 (V11I, C38A, K53A, C76A, D110A, C127A) (human) (UniProt Q14116)
# [31] = biological target: IL-18 polypeptide of SEQ ID NO: 59 (E6K, C38A, K53A) (human) (UniProt Q14116)
# [32] = biological target: IL-18 polypeptide C150 (V11I, T34A, C38A, K53A, C76A, C127A) (human) (UniProt Q14116)
# [33] = biological target: IL-18 polypeptide C147 (V11I, C38A, K53A, D54A, C76A, C127A) (human) (UniProt Q14116)
substance,measurement,setting,value
"Fc fused human IL-18 binding protein isoform a (IL-18BPa; R&D systems, Cat #119-BP) (from UniProt O95998 31-194) (Fc fusion)",IC50 of inhibition by IL-18BP of IFNγ stimulation in NK92 cells,[1],7.85 nM
same,IC50 of inhibition by IL-18BP of IFNγ stimulation in NK92 cells,[2],0.885 nM
same,IC50 of inhibition by IL-18BP of IFNγ stimulation in NK92 cells,[3],3.71 nM
same,IC50 of inhibition by IL-18BP of IFNγ stimulation in NK92 cells,[4],27.8 nM
same,IC50 of inhibition by IL-18BP of IFNγ stimulation in NK92 cells,[5],3.23 nM
same,IC50 of inhibition by IL-18BP of IFNγ stimulation in NK92 cells,[6],15 nM
same,IC50 of inhibition by IL-18BP of IFNγ stimulation in NK92 cells,[7],3.62 nM
same,IC50 of inhibition by IL-18BP of IFNγ stimulation in NK92 cells,[8],0.44 nM
same,IC50 of inhibition by IL-18BP of IFNγ stimulation in NK92 cells,[9],146 nM
same,IC50 of inhibition by IL-18BP of IFNγ stimulation in NK92 cells,[10],1.17 nM
same,IC50 of inhibition by IL-18BP of IFNγ stimulation in NK92 cells,[11],284 nM
same,IC50 of inhibition by IL-18BP of IFNγ stimulation in NK92 cells,[12],961 nM
same,IC50 of inhibition by IL-18BP of IFNγ stimulation in NK92 cells,[13],1.81 nM
same,IC50 of inhibition by IL-18BP of IFNγ stimulation in NK92 cells,[14],5.85 nM
same,IC50 of inhibition by IL-18BP of IFNγ stimulation in NK92 cells,[15],10.2 nM
same,IC50 of inhibition by IL-18BP of IFNγ stimulation in NK92 cells,[16],0.114 nM
same,IC50 of IL-18BP-mediated inhibition of IFNγ secretion by NK92 cells,[17],0.781 nM
same,IC50 of inhibition by IL-18BP of IFNγ stimulation in NK92 cells,[17],1.47 nM
same,IC50 of inhibition by IL-18BP of IFNγ stimulation in NK92 cells,[18],0.456 nM
same,IC50 of inhibition by IL-18BP of IFNγ stimulation in NK92 cells,[19],1060 nM
same,IC50 of inhibition by IL-18BP of IFNγ stimulation in NK92 cells,[20],62.4 nM
same,IC50 of inhibition by IL-18BP of IFNγ stimulation in NK92 cells,[21],3.98 nM
same,IC50 of IL-18BP-mediated inhibition of IFNγ secretion by NK92 cells,[22],0.282 nM
same,IC50 of inhibition by IL-18BP of IFNγ stimulation in NK92 cells,[23],> 703 nM
same,IC50 of inhibition by IL-18BP of IFNγ stimulation in NK92 cells,[24],733 nM
same,IC50 of inhibition by IL-18BP of IFNγ stimulation in NK92 cells,[25],> 55 nM
same,IC50 of inhibition by IL-18BP of IFNγ stimulation in NK92 cells,[26],47.1 nM
same,IC50 of inhibition by IL-18BP of IFNγ stimulation in NK92 cells,[27],2.22 nM
same,IC50 of inhibition by IL-18BP of IFNγ stimulation in NK92 cells,[28],7.29 nM
same,IC50 of inhibition by IL-18BP of IFNγ stimulation in NK92 cells,[29],0.239 nM
same,IC50 of inhibition by IL-18BP of IFNγ stimulation in NK92 cells,[30],3.18 nM
same,IC50 of inhibition by IL-18BP of IFNγ stimulation in NK92 cells,[31],654 nM
same,IC50 of inhibition by IL-18BP of IFNγ stimulation in NK92 cells,[32],21.3 nM
same,IC50 of inhibition by IL-18BP of IFNγ stimulation in NK92 cells,[33],47.6 nM
